Our source for the binding result and IC50 values is patent publication US20040151721A1 (Takeda / Millennium, published 2004).

Several values for one entry are separate records, joined by “and”; a condition that tells them apart may be missing. Identical values can stand only once.

Assay [1] has as its target T1, CCR1 expressed on L1/2 transfectants (UniProt P32246 1-355, limits assumed).
T1 construct: whole, on cells; also called CCR1 transfectants
T1 sequence (looked up): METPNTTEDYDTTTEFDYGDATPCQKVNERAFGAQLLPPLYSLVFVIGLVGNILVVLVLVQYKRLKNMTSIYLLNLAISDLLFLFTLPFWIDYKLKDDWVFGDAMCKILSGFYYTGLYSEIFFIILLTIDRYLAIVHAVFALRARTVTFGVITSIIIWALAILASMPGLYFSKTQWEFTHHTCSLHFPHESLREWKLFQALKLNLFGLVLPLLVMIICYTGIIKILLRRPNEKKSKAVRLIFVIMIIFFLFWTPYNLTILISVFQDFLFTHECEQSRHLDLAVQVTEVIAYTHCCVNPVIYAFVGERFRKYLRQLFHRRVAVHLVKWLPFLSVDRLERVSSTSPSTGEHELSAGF
The assay is described as follows: flow cytometry on L1/2 transfectants, hybridoma supernatant. The protocol: (§1) For the staining of cultured transfectant cell lines 0.5×10^6 cells in 50 μl were resuspended in PBS+1% FCS in a 96 well polystyrene V-bottom plate. 50 μl of primary antibody supernatants or HT medium (negative control) were added, and the samples were incubated at 4° C. for 30 min. 100 μl of PBS were added and the cells were pelleted by centrifugation and washed once with PBS. The pellet was resuspended in 100 μl PBS+1% FCS containing FITC-conjugated goat anti-mouse IgG antibody (a 1:250 dilution) and incubated for thirty minutes at 4° C. in the dark. The cells were washed twice with PBS, resuspended in PBS, and analyzed by flow cytrometry with a FacScan cytometer using the CellQuest software (Becton-Dickenson) Cells were fixed with PBS/1% formaldehyde if they were not to be analyzed the same day. Monoclonal antibodies 1D9 and 8G2 stain CCR2 transfectants but not CCR1 or CCR5 transfectants (FIG. 1).
On the technique in general: In flow cytometry, cells or beads pass a laser one at a time.

The target in assay [2] is T2, CCR5 expressed on L1/2 transfectants (UniProt P51681 1-352, limits assumed).
T2 construct: whole, on cells; also called CCR5 transfectants
T2 sequence (P51681 whole entry): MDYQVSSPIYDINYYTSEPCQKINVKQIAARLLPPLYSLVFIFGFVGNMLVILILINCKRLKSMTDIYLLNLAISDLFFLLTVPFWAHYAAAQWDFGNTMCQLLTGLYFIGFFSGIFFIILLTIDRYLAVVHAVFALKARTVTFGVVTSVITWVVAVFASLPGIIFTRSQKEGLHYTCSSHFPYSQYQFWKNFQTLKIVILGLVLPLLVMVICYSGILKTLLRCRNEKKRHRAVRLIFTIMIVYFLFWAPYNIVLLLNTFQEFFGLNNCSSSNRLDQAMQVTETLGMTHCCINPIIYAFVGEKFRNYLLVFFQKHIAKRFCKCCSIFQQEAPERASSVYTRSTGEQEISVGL
The assay is described as above. The protocol: as §1

Assay [3] has as its target T3, human CCR2, endogenous on THP-1 cells / THP-1 cell membranes, fresh PBMC and whole blood cells (human, UniProt P41597 1-374).
T3 construct: whole, on cells; Native receptor; It was used on whole cells and as a THP-1 membrane preparation; The splice form is not specified for THP-1; also called CCR2b (on blood cells)
The assay is described as follows: inhibition of 0.1 nM [125I]MCP-1 binding to fresh PBMC, filtration and scintillation counting. The protocol: The amount of bound tracer was determined by separation of free from bound by filtration and scintillation counting. The data was analyzed to determine the IC50 value as for FIG. 4.
(§2) Competition binding experiments were performed by including variable concentrations of unlabeled MCP-1, 1D9 antibody, or a negative control IgG2a. Nonspecific binding was determined following the addition of a 2500-fold excess of unlabeled MCP-1. Samples were incubated for 60 minutes at room temperature, and bound and free tracer were separated by filtration through 96-well GF/B filterplates presoaked in 0.3% polyethyleneimine.

Assay [4] concerns the target T3, human CCR2, endogenous on THP-1 cells / …. As to the kind of experiment: inhibition of 0.1 nM [125I]MCP-1 binding to THP-1 cell membranes, filtration and scintillation counting. The protocol:
The amount of bound tracer was determined by separation of free from bound by filtration and scintillation counting. The data was analyzed to determine the IC50 value by non-linear regression using a 4-parameter logistic equation with KaleidaGraph software.
as §2

T3 sequence (P41597 whole entry, canonical isoform): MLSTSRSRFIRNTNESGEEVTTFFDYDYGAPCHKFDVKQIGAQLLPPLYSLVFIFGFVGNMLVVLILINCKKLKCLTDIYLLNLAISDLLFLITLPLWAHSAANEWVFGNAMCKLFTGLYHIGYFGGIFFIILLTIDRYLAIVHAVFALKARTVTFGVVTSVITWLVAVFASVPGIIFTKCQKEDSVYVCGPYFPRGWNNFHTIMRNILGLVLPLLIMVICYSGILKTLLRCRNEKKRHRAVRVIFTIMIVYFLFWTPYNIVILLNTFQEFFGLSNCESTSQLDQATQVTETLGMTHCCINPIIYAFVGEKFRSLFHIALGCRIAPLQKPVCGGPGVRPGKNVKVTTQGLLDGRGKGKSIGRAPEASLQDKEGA

B1: murine monoclonal antibody LS132.1D9 (1D9) (antibody, V domains shown)
VH: EVQLVESGGGLVQPKGSLKLSCAASGFSFNAYAMNWVRQAPGKGLEWVARIRTKNNNYATYYADSVKDRYTISRDDSESMLFLQMNNLKTEDTAMYYCVTFYGNGVWGTGTTVTVSS
VL: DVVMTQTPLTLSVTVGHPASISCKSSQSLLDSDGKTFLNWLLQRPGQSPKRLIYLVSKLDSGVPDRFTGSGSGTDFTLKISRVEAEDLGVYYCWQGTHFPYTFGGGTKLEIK
notes: Mouse hybridoma antibody with a kappa light chain; The controls used were murine IgG2a and an 'isotype-matched' antibody, so IgG2a is implied; It was used as hybridoma supernatant in FACS; also called mAb 1D9; mus-1D9
Consider B1, for which the binding result in assay [1] and in assay [2] was “no binding” in each case. Also, the IC50 – broadly, the concentration at which inhibition is half-maximal – in assay [3] is 0.04 µg/mL and ~0.2 nM; in assay [4], ~0.004 µg/mL and ~0.02 nM.
